The results in this text go back to article PMC8101487 (Molecular Biology of the Cell, 2021).

This assay deals with T1, Frq1 (S. cerevisiae, UniProt Q06389 1-190).
T1 sequence (looked up): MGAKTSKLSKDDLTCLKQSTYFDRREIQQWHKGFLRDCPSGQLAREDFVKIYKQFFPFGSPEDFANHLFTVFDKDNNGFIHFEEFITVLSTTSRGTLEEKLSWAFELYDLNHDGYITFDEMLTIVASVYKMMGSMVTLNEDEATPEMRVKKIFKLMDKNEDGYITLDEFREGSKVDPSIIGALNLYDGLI
In words: SEC.

B1: Pik1(121-174) peptide (peptide, UniProt P39104 121-174, looked up)
peptide: ASYGFQVARRVLNNLQTNLFNTSSGSDKNVKIHENVAPALVLSSMIMSAIAFPQ
On to B1, for which the binding result is reported as “binds”.
